Article PMC4655421

Tested on: C=C(OP(=O)(O)O)C(=O)O
Assay: Steady-state ATP production by pyruvate kinase monitored by Rho-MatB
Assay type: biochemical, rabbit
Conditions: pH 7.5
[1] = other: single curve fit, Figure 6B, 250 μM ADP, 20 °C

pyruvate kinase (Oryctolagus cuniculus)
Km (other: n = 5, 20.0 °C): 103 µM | Km [1]: 75.5 ± 3.4 µM | Vmax [1]: 0.019 ± 0.002 μM s^–1
